Data from patent US20250333441A1, “POLYPEPTIDE INHIBITORS AND USES THEREOF” (Neuracle Science Co., Ltd., priority 2021, published 2025).

Tests used:
[1] = target: binding of FAM19A5 protein to full-length ectodomain of the LRRC4B protein (amino acids 36-576)-hFc (Homo sapiens, UniProt Q7Z5A7); assay: Competitive inhibition assay, plate coated with full-length LRRC4B ectodomain; settings: 100 nM coated ectodomain; FAM19A5 5 ng/mL; increasing concentrations
Protocol: Next, to further assess the role that the binding domain of the LRRC4B protein has on the interaction between FAM19A5 protein and members of the LRRC4 protein family, a competitive inhibition assay was used to determine whether different LRRC4B deletion constructs from Example 2 could inhibit the binding of FAM19A5 to the full-length ectodomain of the LRRC4B protein (i.e., amino acids 36-576 of SEQ ID NO: 2; SEQ ID NO: 5). Briefly, 100 nM of the full-length ectodomain of the LRRC4B protein was used to coat a plate, and then recombinant FAM19A5 protein (5 ng/mL) was added to the plate in combination with the following LRRC4B deletion constructs (increasing concentrations): (1) LRRC4B (453-576) (i.e., construct #11 in Table 6); (2) LRRC4B (453-576) mutant (comprises alanine substitutions at positions 488 and 489 of SEQ ID NO: 2; SEQ ID NO: 16); (3) LRRC4B (484-576) (i.e., construct #12 in Table 6); (4) LRRC4B (482-576); (5) LRRC4B (482-497); and (6) LRRC4B (498-576). The plates were incubated at 37° C., and then, the amount of FAM19A5 bound to the coated LRRC4B ectodomain protein was measured using H1RP-conjugated anti-FAM19A5 (1-65) antibody. […]

[2] = system: mouse primary cortical neurons; assay: Neurite growth of primary cortical neurons (beta-tubulin III immunostaining); assay type: cell-based; settings: 0.006 to 60 nM; day 3 post-initial culture; versus DMSO control
Protocol: Next, primary cortical neurons (day 1 postnatal) were cultured in vitro with varying concentrations (0.006 to 60 nM) of the LRRC4B (453-576) protein fragment (i.e., amino acid residues 453-576 of SEQ ID NO: 2; SEQ ID NO: 7), and then at day 3 post-initial culture, the effect on neurite growth was assessed by immunostaining the cells with anti-beta-tubulin III antibody. Cells cultured with DMSO (“Veh”) were used as control.
Mouse hippocampal neurons were treated with LRRC4B peptides at 1 and 2 DIV to determine neurite growth. It was measured by using 3 different parameters, which are total neurites length, number of primary and secondary neurites. After the neurons were stained with beta-tubulin III at 3 DIV, neurites length and branch points were measured using Fiji (Image J, NIH, Bethesda). Individual neurons were selected by hand and these parameters were counted using the Simple neurite tracer plugin. Mouse spinal motor neurons sampled at postnatal day 1 were treated with 10 nM of NS101 and LRRC4B-peptides (dFB-dWY-JM31 and dFB-DY-JM31) at 1 and 2 DIV and immunostained with Tau-5 antibody at 3 DIV. Total neurite length and number of somas in images were measured by Neurphology Image J plugin.

[3] = target: T1, FAM19A5 (isoform 2) - full-length LRRC4B protein complex (Homo sapiens, UniProt Q7Z5A7); assay: Immunofluorescence: dissociation of FAM19A5 from full-length LRRC4B in HEK293 cells; assay type: cell-based; settings: HEK293 cells expressing FAM19A5 isoform 2 and LRRC4B, treated 30 minutes
T1 construct: expressed in transfected cells; host or cells: HEK293
Protocol: Since LRRC4B protein fragments containing the binding domain described in Example 2 (e.g., LRRC4B (453-576); i.e., construct #11 in Table 6) was able to bind to FAM19A5 protein with high affinity, it was next assessed whether such protein fragments could compete with naturally existing LRRC4B protein for binding to FAM19A5 protein, and thereby, dissociate the FAM19A5-LRRC4 protein family complex. Briefly, HEK293 cells expressing both FAM19A5 isoform 2 and LRRC4B protein were treated (i.e., cultured in vitro) for 30 minutes with either LRRC4B (453-576)-hFc or mutant LRRC4B (453-576)-hFc (includes alanine substitutions at positions 488 and 489 of SEQ ID NO: 2; SEQ ID NO: 16) protein fragments. Then, the cells were immunostained with anti-FAM19A5 (1-65) and anti-LRRC4B antibodies to determine the expression of FAM19A5 and full-length LRRC4B proteins, respectively. The hFc-fused LRRC4B protein fragments were determined using an anti-hIgG antibody. The nuclei were stained with Hoechst 33342.

[4] = system: mouse primary hippocampal neurons; assay: Synapse formation (SYP, PSD95) in primary hippocampal neurons; assay type: cell-based; settings: 6 or 60 nM
Protocol: Next, it is generally known that neurites that outgrow from other neurites are capable of differentiating into axons, forming presynapses. Other neurites remain minor neurites and differentiate into dendrites, forming postsynapses. Therefore, whether the LRRC4B (453-576) protein fragment can also affect pre- and post-synaptic formation was also assessed. Briefly, mouse primary hippocampal neurons were cultured in vitro with the LRRC4B (453-576) protein fragment (6 or 60 nM). Control cells were treated with either DMSO (“Veh”) or the mutant LRRC4B (453-576) protein fragment which is not capable of binding to FAM19A5 protein (comprises alanine substitutions at positions 488 and 489). Then, at days 3 and 6 post initial culture, the expression level of synaptophysin (SYP; a presynaptic marker) was assessed. At day 7 post initial culture, the expression level of postsynaptic density 95 (PSD95; a postsynaptic marker) was assessed.
Primary hippocampal neurons were prepared from postnatal pups (postnatal day 1) of C57BL/6 (Nara Biotech, Seoul, Korea) as previously described by Beaudoin et al., Nature protocols 7(9): 1741-1754 (2012), which is incorporated herein by reference in its entirety. Briefly, cortices were dissected in Hank's buffered salt solution (HBSS) (Invitrogen, Carlsbad, CA, USA) and digested with 2.5% trypsin for 15 min at 37° C. […]

T1 sequence (Q7Z5A7 1-125 isoform Q7Z5A7-2, one chain of several): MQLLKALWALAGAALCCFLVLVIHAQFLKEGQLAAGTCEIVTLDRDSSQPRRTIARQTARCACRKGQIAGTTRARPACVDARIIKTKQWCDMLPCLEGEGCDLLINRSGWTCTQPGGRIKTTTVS
Sequence of binding of FAM19A5 protein to full-length ectodomain of the LRRC4B protein (amino acids 36-576)-hFc (Q7Z5A7 44-132): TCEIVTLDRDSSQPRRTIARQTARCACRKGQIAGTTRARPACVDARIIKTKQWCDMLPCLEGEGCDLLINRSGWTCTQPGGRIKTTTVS

B1: LRRC4B (453-576): LRRC4B fragment, amino acids 453-576 of SEQ ID NO: 2 (SEQ ID NO: 7); used hFc-fused (protein)
chain: VSAVDPVAAGGTGSGGGGPGGSGGVGGGSGGYTYFTTVTVETLETQPGEEALQPRGTEKEPPGPTTDGVWGGGRPGDAAGPASSSTTAPAPRSSRPTEKAFTVPITDVTENALKDLDDVMKTTK
modifications: human Fc fusion in use
notes: used hFc-fused
With B1 the “inhibition of FAM19A5 binding to coated full-length LRRC4B ectodomain protein” value [1] was “able to inhibit FAM19A5 protein from binding”, the neurite growth [2] was “increased neurite growth in a dose-dependent manner” and the “dissociation of FAM19A5 from full-length LRRC4B protein” value [3] was “FAM19A5 was largely dissociated from the full-length LRRC4B protein”. For the same molecule, the “number of puncta colabeled with SYP and PSD95” value [4] was “increased number of puncta”.
